The first assay addresses T1, recombinant human or murine heat shock protein 70 (hsp70) (human or murine). The assay can be described thus: binding affinity for HSP70, binding inhibition assay.
T1 sequence (A8K5I0 entry or part of it): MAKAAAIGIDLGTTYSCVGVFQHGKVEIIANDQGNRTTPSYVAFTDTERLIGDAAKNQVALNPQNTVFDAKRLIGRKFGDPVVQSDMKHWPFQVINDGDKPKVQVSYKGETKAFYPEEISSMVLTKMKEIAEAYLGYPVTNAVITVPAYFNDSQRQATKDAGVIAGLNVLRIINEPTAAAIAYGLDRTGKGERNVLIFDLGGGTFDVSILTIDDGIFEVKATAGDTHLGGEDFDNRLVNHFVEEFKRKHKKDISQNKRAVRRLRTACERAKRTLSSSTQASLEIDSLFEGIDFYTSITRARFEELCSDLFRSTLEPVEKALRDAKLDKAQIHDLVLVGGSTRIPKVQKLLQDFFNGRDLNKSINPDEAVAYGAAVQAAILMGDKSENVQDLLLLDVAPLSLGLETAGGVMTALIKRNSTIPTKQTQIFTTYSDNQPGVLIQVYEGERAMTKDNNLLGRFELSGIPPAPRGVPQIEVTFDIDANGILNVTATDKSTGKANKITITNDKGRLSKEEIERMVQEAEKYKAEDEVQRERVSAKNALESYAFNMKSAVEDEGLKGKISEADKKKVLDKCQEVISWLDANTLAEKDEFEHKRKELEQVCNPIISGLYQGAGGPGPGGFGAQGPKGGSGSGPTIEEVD
For NLLRLTGWQLKSIINFEKL, the Kd (as a rule, the concentration at which binding is half-saturated) stood at 400 nM.

As for NLLRLTGWFRSIINFEKL, the Kd was determined as 1500 nM.

Regarding NLLRLTGWGSGSIINFEKL, the Kd stood at 1600 nM.

Turning to NLLRLTGWAKVLSIINFEKL, the Kd is 2000 nM. With NLLRLTGWRKSIINFEKL, the Kd is 800 nM. On to NLLRLTGWFFRKSIINFEKL, for which the Kd was 2200 nM.

The target of the next assay is T1, recombinant human or murine heat shock …. The assay can be described thus: binding inhibition assay (Hill plot) against labeled reference hybrid antigen on hsp70.
Turning to NLLRLTGWGSGSIINFEKL, the Kd was determined as 1600 nM. Consider NLLRLTGWRKSIINFEKL, for which the Kd came to 800 nM. As to NLLRLTGWFFRKSIINFEKL, the Kd came out at 2200 nM.

With SIINFEKL [SIINFEKL (ovalbumin amino acids 257-264)], the Kd was 235000 nM.

For the origin of these results see patent publication US20050214312A1 (ANTIGENICS, published 2005).
